Test results reported in patent US6497872B1, “Neural transplantation using proliferated multipotent neural stem cells and their progeny” (NeuroSpheres Holdings Ltd., priority 1991, dated 2002).

What was measured:
[1] = test system: EGF-generated precursor cells; experiment: Screening of BDNF on differentiation and survival of stem cell progeny (Example 37); format: cell-based, mouse
Experimental: Precursor cells were propagated as described in Example 4 and differentiated using Paradigm 3 described in Example 7. At the time of plating the EGF-generated cells, BDNF was added at a concentration of 10 ng/ml. At 3, 7, 14, and 21 days in vitro (DIV), cells were processed for indirect immunocytochemistry. BrdU labeling was used to monitor proliferation of the precursor cells. The effects of BDNF on neurons, oligodendrocytes and astrocytes were assayed by probing the cultures with antibodies that recognize antigens found on neurons (MAP-2, NSE, NF), oligodendrocytes (O4, GalC, MBP) or astrocytes (GFAP). Cell survival was determined by counting the number of immunoreactive cells at each time point and morphological observations were made.
Cells treated with BDNF according to the methods described in Part A were probed with antibodies that recognize neural transmitters or enzymes involved in the synthesis of neural transmitters. These included TH, ChAT, substance P, GABA, somatostatin, and glutamate. In both control and BDNF-treated culture conditions, neurons tested positive for the presence of substance P and GABA.
Cells that are responsive to growth factor treatment were identified by differentiating the EGF-generated progeny as described in Example 7, paradigm 3 and at 1 DIV adding approximately 100 ng/ml of BDNF. At 1, 3, 6, 12 and 24 hours after the addition of BDNF the cells were fixed and processed for dual label immunocytochemistry. Antibodies that recognize neurons (MAP-2, NSE, NF), oligodendrocytes (O4, GalC, MBP) or astrocytes (GFAP) were used in combination with an antibody that recognizes c-fos and/or other immediate early genes.

[2] = test system: EGF-generated neurospheres; experiment: Effect of growth factors on neurosphere differentiation, immunocytochemistry (Example 8); format: cell-based, mouse; details: paradigm 3; BDNF
Experimental: Six to 8 days after the first passage, the neurospheres were removed and centrifuged at 400 r.p.m. The EGF-containing supernatant was removed and the pellet suspended in EGF-free complete medium containing 1% FBS. Neurospheres (approximately 0.5-1.0×10^6 cells/well) were plated on poly-L-ornithine-coated (15 μg/ml) glass coverslips in 24 well Nuclon (1.0 ml/well) culture dishes. After 24 hours in culture, the coverslips were transferred to 12 well (Costar) culture dishes containing complete medium containing 0.5% FBS. The medium was changed every 4-7 days. This differentiation procedure is referred to as the “Rapid Differentiation Paradigm” or RDP.
Six to 8 days after the first passage, the neurospheres were removed and centrifuged at 400 r.p.m. The EGF-containing media was removed and the pellet was suspended in EGF-free complete medium containing 1% FBS. The neurospheres were mechanically dissociated into single cells with a fire-polished Pasteur pipette and centrifuged at 800 r.p.m. for 5 minutes. Between 0.5×10^6 and 1.0×10^6 cells were plated on poly-L-ornithine-coated (15 μg/ml) glass coverslips in 24 well Nuclon (1.0 ml/well) culture dishes. The EGF-free culture medium containing 1% FBS was changed every 4-7 days.
Neurospheres were washed free of EGF by serial transfers through changes of EGF-free medium. A single neurosphere was plated onto poly-L-ornithine-coated (15 μg/ml) glass coverslips in a 24-well plate. The culture medium used was complete medium with or without I % FBS. The medium was changed every 4-7 days.
Neurospheres were washed free of EGF by serial transfers through changes of EGF-free medium. A single neurosphere was mechanically dissociated in a 0.5 ml Eppendorf centrifuge tube and all the cells were plated onto a 35 mm culture dish. Complete medium was used with or without 1% FBS.
The effects of CNTF, FGF-2, BDNF, and retinoic acid on neurosphere differentiation were tested using the differentiation paradigms set forth in Example 7.
The effect of CNTF was assayed in paradigms 1 and 3. For both paradigms, CNTF was added either at the beginning of the experiment at a concentration of 10 ng/ml or daily at a concentration of 1 ng/ml.
Three different antibodies directed against 04, galactocerebroside (GalC) and MBP were used to study the effect of CNTF on the oligodendrocytes of paradigm 1. CNTF had no effect on the number of 04(+) cells, but there was an increase in the number of GalC(+) and MBP(+) cells compared with the control. Thus it appears that CNTF plays a role in the maturation of oligodendrocytes.
The effect of FGF-2 was tested using paradigms 2 and 4. In paradigm 2, 20 ng/ml of FGF-2 was added at the beginning of the experiment and cells were stained 7 days later. FGF-2 increased the number of GFAP(+) cells and the number of NSE(+) cells.
In paradigm 4, 20 ng/ml of FGF-2 was added at the beginning of the experiment and assayed 7-10 days later. […] It induced two different cell types to divide, neuroblasts and bipotential progenitor cells. The neuroblast produced, on average, 6 neurons while the bipotential cell produced approximately 6 neurons and a number of astrocytes.

[3] = test system: EGF-generated mouse neurospheres; experiment: BDNF on single EGF-generated neurospheres (Example 12); format: cell-based; details: 10 ng/ml; 14-28 days in vitro; preliminary experiments
Experimental: The expression of the trk family of neurotrophin receptors in EGF-generated neurospheres was examined by northern blot analysis. Total mRNA was isolated from mouse and rat striatal EGF-generated neurospheres. […] In preliminary experiments, single EGF-generated mouse neurospheres were plated on poly-L-ornithine coated glass coverslips and cultured in the absence or presence of 10 ng/ml of BDNF. […] Activation of the trkB receptor on EGF-generated neurospheres may enhance differentiation, survival of and/or neurite outgrowth from newly generated neurons.

B1: BDNF: brain-derived neurotrophic factor (protein, UniProt P23560 19-247, looked up)
Neurotrophic factor BDNF …: APMKEANIRGQGGLAYPGVRTHGTLESVNGPKAGSRGLTSLADTFEHVIEELLDEDQKVRPNEENNKDADLYTSRVMLSSQVPLEPPLLFLLEEYKNYLDAANMSMRVRRHSDPARRGELSVCDSISEWVTAADKKTAVDMSGGTVTVLEKVPVSKGQLKQYFYETKCNPMGYTKEGCRGIDKRHWNSQCRTTQSYVRALTMDSKKRIGWRFIRIDTSCVCTLTIKRGR
For B1, the “neurite extension and branching” value ([1]; 10 ng/ml) was “dramatic increase”, the “Astrocyte and oligodendrocyte numbers versus control” value ([1]; 10 ng/ml, paradigm 3) was “not significantly altered” and the “differentiation and survival of neurons versus control” value ([1]; 10 ng/ml, paradigm 3, 3-21 DIV) was “significantly increased”. The expression of c-fos ([1]; approximately 100 ng/ml at 1 DIV, 1-24 hours) was “selective increase in the expression of c-fos in neuronal cells”, the “neuronal branching and migration of the neurons away from the sphere” value [2] was “increase” and the “number of NSE(+) neurons per neurosphere” value [2] was “increase”. For the same molecule, the “morphology of NSE(+) cells” value [3] was “NSE(+) cells with extensive and highly branched processes”.
